Assay results: paper PMC7509637 (Advanced Science, 2020)
Values joined by “and” are separate entries in the source; they are usually repeats but may differ in a detail not shown here. Equal entries are not always repeated. “Also recorded” adds a separate entry of the source.

Experiments:
[1] = target: T1, Aβ (Homo sapiens, UniProt P05067); assay: Circular dichroism spectroscopy, secondary structure; conditions: 37 °C, CD; for β-sheet content: Contin/reference set 4, n = 3; for random coil content: n = 3
T1 construct: purchased Anaspec Inc
Experimental: Solutions of 200 µL, at similar molar ratios as for ThT assay, were prepared and incubated at 37 °C. CD spectra for different samples at 0, 12 and 48 h were measured with a CD spectrophotometer (Jasco) from 190 to 240 nm (1 nm step size). The percentage secondary structure was calculated by the CD data via Dichroweb analysis with parameters of Contin/reference set 4.^[ ^95 ^]

[2] = test system: Aβ fibrils; assay: AFM of fibrils, FiberApp statistical analysis; conditions: compared with the control
Experimental: Aβ incubated in the presence or absence of FapCS, FapC monomers, FapC fibrils or bLgS were subjected to TEM imaging. After incubation for 12 h, a drop of sample was applied on a glow‐discharged carbon‐coated copper grid. After 1 min, the sample was blotted and then negatively stained with uranyl acetate (1%) for 30 s. The dried grid was then imaged with a Technei F20 TEM at 200 kV. For AFM, a drop of sample was placed on freshly cleaved mica surface and rinsed with water after 2 min and dried with pressurized air. The sample was scanned with an AFM (Nanoscope VIII Multimode Scanning Force Microscopes, Bruker), covered with an acoustic hood to minimize the vibrational noise. Images were acquired under the tapping mode with a silicon nitride cantilever (Bruker). AFM images were processed with Nanoscope Analysis 1.5 software to flatten the background and to calculate the statistical parameters.

[3] = test system: Aβ amyloid fibrils; assay: STED microscopy of FapCS with Aβ fibrils; conditions: FapCS labeled with Alexa 647, ThT-labeled Aβ fibrils, 12 h
Experimental: STED microscopy was employed to study the interaction of FapCS with Aβ. FapCS was labeled with Alexa 647 NHS ester via carbodiimide coupling reaction (1:1 molar ratio) in PBS (pH 8) for a duration of 5 h. The labeled fragments were purified via centrifugal filters ([…]). Labeled FapCS was incubated with Aβ at the same molar ratio as for the ThT assay. After 12 h of incubation, the FapCS‐seeded Aβ fibrils were incubated with ThT dye (100 × 10^−6 M) for 30 min to label the Aβ backbone and then purified via centrifugal filters ([…]). A drop of 20 µL of the sample was placed on a poly‐L‐lysine coated coverslip, flipped on a glass slide and then imaged under STED microscope. Alexa and ThT fluorescence were imaged under the excitations of 647 and 488 nm and emissions of 665 and 525 nm, respectively.

Molecule	β-sheet content ([1]; 0 h)	random coil content ([1]; 0 h)	random coil content ([1]; 12 h)	β-sheet content ([1]; 48 h)	rise in fibrillar diameter of Aβ upon seeding vs control [2]	interaction with Aβ fibrils by STED [3]
amyloid beta [Aβ]	28% and 28 ± 9%	34 ± 6%	28 ± 1.5%	54% and 54 ± 4.5%		
FapCS: FapC seeds obtained by sonication of mature FapC fibrils (P. aeruginosa) (protein) GNEGGWHPPKPNPQSNNKGGATALVVDTQQNYNNKVSNFGTLNNASVSGSIKDASGNVGVNVAAGDNNQQANAAALASADASFVFGTATASTSVLQSGYGNTLNNYSNPNTASLSNSANNVSGNLGVNVAAGNFNQQKNDLAAAVSNGQYSTAGSAASQTSTGNTTVNSANYAYGGTYVSLKLNADGSYKGTSDQIGDVYLDTWEGQTHPGGSNTGHIDVDSQAQGAKDLNHDGGAFAFKEKGDVDLKGTVSGFIPAIVGFKTPVTNNASLSNSLQNVSGNVGVNIAAGGGNQQSNSLSIAAGCSSCPAGGESLGF					37%	adsorption of FapCS (labeled with Alexa 647) onto Aβ amyloid fibrils; also recorded: intercalation of FapCS inside the Aβ fibrils; also recorded: adsorbed onto or integrated into Aβ fibrils
